Experimental data from PMC7367873, “Dissecting the sequence determinants for dephosphorylation by the catalytic subunits of phosphatases PP1 and PP2A” (Nature Communications, 2020).
One block for each molecule: values may come before it.

Legend:
GFP-14-3-3β = GFP-14-3-3β co-IP with LC-MS/MS, untreated GFP-14-3-3β versus GFP control (14-3-3 interactome); assay type: binding, human
[1] = test system: GFP-14-3-3β and its binding proteins; test: GFP-14-3-3β co-IP with LC-MS/MS label-free quantification, untreated versus PP1c-treated; design: species or system human
[2] = untreated vs GFP, LFQ intensities, replicates 1-3
[3] = PP1 vs untreated, LFQ intensities, replicates 1-3

B4: DBN1 (protein, UniProt Q16643 2-649, looked up)
Drebrin: AGVSFSGHRLELLAAYEEVIREESAADWALYTYEDGSDDLKLAASGEGGLQELSGHFENQKVMYGFCSVKDSQAALPKYVLINWVGEDVPDARKCACASHVAKVAEFFQGVDVIVNASSVEDIDAGAIGQRLSNGLARLSSPVLHRLRLREDENAEPVGTTYQKTDAAVEMKRINREQFWEQAKKEEELRKEEERKKALDERLRFEQERMEQERQEQEERERRYREREQQIEEHRRKQQTLEAEEAKRRLKEQSIFGDHRDEEEETHMKKSESEVEEAAAIIAQRPDNPREFFKQQERVASASAGSCDVPSPFNHRPGSHLDSHRRMAPTPIPTRSPSDSSTASTPVAEQIERALDEVTSSQPPPLPPPPPPAQETQEPSPILDSEETRAAAPQAWAGPMEEPPQAQAPPRGPGSPAEDLMFMESAEQAVLAAPVEPATADATEIHDAADTIETDTATADTTVANNVPPAATSLIDLWPGNGEGASTLQGEPRAPTPPSGTEVTLAEVPLLDEVAPEPLLPAGEGCATLLNFDELPEPPATFCDPEEVEGESLAAPQTPTLPSALEELEQEQEPEPHLLTNGETTQKEGTQASEGYFSQSQEEEFAQSEELCAKAPPPVFYNKPPEIDITCWDADPVPEEEEGFEGGD
- Difference (log2), untreated vs GFP (GFP-14-3-3β; [2]): -0.06481 log2
- Difference (log2), PP1 vs untreated [1, 3]: -0.9011 log2

B5: SH3BP5L (protein, UniProt Q7L8J4 1-393, looked up)
SH3 domain-binding protein …: MAELRQVPGGRETPQGELRPEVVEDEVPRSPVAEEPGGGGSSSSEAKLSPREEEELDPRIQEELEHLNQASEEINQVELQLDEARTTYRRILQESARKLNTQGSHLGSCIEKARPYYEARRLAKEAQQETQKAALRYERAVSMHNAAREMVFVAEQGVMADKNRLDPTWQEMLNHATCKVNEAEEERLRGEREHQRVTRLCQQAEARVQALQKTLRRAIGKSRPYFELKAQFSQILEEHKAKVTELEQQVAQAKTRYSVALRNLEQISEQIHARRRGGLPPHPLGPRRSSPVGAEAGPEDMEDGDSGIEGAEGAGLEEGSSLGPGPAPDTDTLSLLSLRTVASDLQKCDSVEHLRGLSDHVSLDGQELGTRSGGRRGSDGGARGGRHQRSVSL
- Difference (log2), untreated vs GFP (GFP-14-3-3β; [2]): 3.944 log2
- Difference (log2), PP1 vs untreated [1, 3]: -0.8873 log2

B7: NOP56 (protein, UniProt O00567 1-594, looked up)
Nucleolar protein 56: MVLLHVLFEHAVGYALLALKEVEEISLLQPQVEESVLNLGKFHSIVRLVAFCPFASSQVALENANAVSEGVVHEDLRLLLETHLPSKKKKVLLGVGDPKIGAAIQEELGYNCQTGGVIAEILRGVRLHFHNLVKGLTDLSACKAQLGLGHSYSRAKVKFNVNRVDNMIIQSISLLDQLDKDINTFSMRVREWYGYHFPELVKIINDNATYCRLAQFIGNRRELNEDKLEKLEELTMDGAKAKAILDASRSSMGMDISAIDLINIESFSSRVVSLSEYRQSLHTYLRSKMSQVAPSLSALIGEAVGARLIAHAGSLTNLAKYPASTVQILGAEKALFRALKTRGNTPKYGLIFHSTFIGRAAAKNKGRISRYLANKCSIASRIDCFSEVPTSVFGEKLREQVEERLSFYETGEIPRKNLDVMKEAMVQAEEAAAEITRKLEKQEKKRLKKEKKRLAALALASSENSSSTPEECEEMSEKPKKKKKQKPQEVPQENGMEDPSISFSKPKKKKSFSKEELMSSDLEETAGSTSIPKRKKSTPKEETVNDPEEAGHRSGSKKKRKFSKEEPVSSGPEEAVGKSSSKKKKKFHKASQED
- Difference (log2), untreated vs GFP (GFP-14-3-3β; [2]): 2.987 log2
- Difference (log2), PP1 vs untreated [1, 3]: -0.8589 log2

More lines, main results first:

- Difference (log2), PP1 vs untreated [1, 3]: -0.8907 log2
B1: FLII (protein, UniProt Q13045 1-1269, looked up)
Protein flightless-1 homolog: MEATGVLPFVRGVDLSGNDFKGGYFPENVKAMTSLRWLKLNRTGLCYLPEELAALQKLEHLSVSHNNLTTLHGELSSLPSLRAIVARANSLKNSGVPDDIFKLDDLSVLDLSHNQLTECPRELENAKNMLVLNLSHNSIDTIPNQLFINLTDLLYLDLSENRLESLPPQMRRLVHLQTLVLNGNPLLHAQLRQLPAMTALQTLHLRSTQRTQSNLPTSLEGLSNLADVDLSCNDLTRVPECLYTLPSLRRLNLSSNQITELSLCIDQWVHVETLNLSRNQLTSLPSAICKLSKLKKLYLNSNKLDFDGLPSGIGKLTNLEEFMAANNNLELVPESLCRCPKLRKLVLNKNHLVTLPEAIHFLTEIEVLDVRENPNLVMPPKPADRAAEWYNIDFSLQNQLRLAGASPATVAAAAAAGSGPKDPMARKMRLRRRKDSAQDDQAKQVLKGMSDVAQEKNKKQEESADARAPSGKVRRWDQGLEKPRLDYSEFFTEDVGQLPGLTIWQIENFVPVLVEEAFHGKFYEADCYIVLKTFLDDSGSLNWEIYYWIGGEATLDKKACSAIHAVNLRNYLGAECRTVREEMGDESEEFLQVFDNDISYIEGGTASGFYTVEDTHYVTRMYRVYGKKNIKLEPVPLKGTSLDPRFVFLLDRGLDIYVWRGAQATLSSTTKARLFAEKINKNERKGKAEITLLVQGQELPEFWEALGGEPSEIKKHVPEDFWPPQPKLYKVGLGLGYLELPQINYKLSVEHKQRPKVELMPRMRLLQSLLDTRCVYILDCWSDVFIWLGRKSPRLVRAAALKLGQELCGMLHRPRHATVSRSLEGTEAQVFKAKFKNWDDVLTVDYTRNAEAVLQSPGLSGKVKRDAEKKDQMKADLTALFLPRQPPMSLAEAEQLMEEWNEDLDGMEGFVLEGKKFARLPEEEFGHFYTQDCYVFLCRYWVPVEYEEEEKKEDKEEKAEGKEGEEATAEAEEKQPEEDFQCIVYFWQGREASNMGWLTFTFSLQKKFESLFPGKLEVVRMTQQQENPKFLSHFKRKFIIHRGKRKAVQGAQQPSLYQIRTNGSALCTRCIQINTDSSLLNSEFCFILKVPFESEDNQGIVYAWVGRASDPDEAKLAEDILNTMFDTSYSKQVINEGEEPENFFWVGIGAQKPYDDDAEYMKHTRLFRCSNEKGYFAVTEKCSDFCQDDLADDDIMLLDNGQEVYMWVGTQTSQVEIKLSLKACQVYIQHMRSKEHERPRRLRLVRKGNEQHAFTRCFHAWSAFCKALA
- Difference (log2), untreated vs GFP (GFP-14-3-3β; [2]): 1.165 log2

- Difference (log2), PP1 vs untreated [1, 3]: -0.8796 log2
B2: YWHAH (protein, UniProt Q04917 2-246, looked up)
14-3-3 protein eta: GDREQLLQRARLAEQAERYDDMASAMKAVTELNEPLSNEDRNLLSVAYKNVVGARRSSWRVISSIEQKTMADGNEKKLEKVKAYREKIEKELETVCNDVLSLLDKFLIKNCNDFQYESKVFYLKMKGDYYRYLAEVASGEKKNSVVEASEAAYKEAFEISKEQMQPTHPIRLGLALNFSVFYYEIQNAPEQACLLAKQAFDDAIAELDTLNEDSYKDSTLIMQLLRDNLTLWTSDQQDEEAGEGN
- Difference (log2), untreated vs GFP (GFP-14-3-3β; [2]): 7.762 log2

- Difference (log2), PP1 vs untreated ([1]; log2 difference, pairwise comparison PP1 vs untreated, label-free quantification, 3 replicates each): 1.645
B3: TMEM33 (protein, UniProt P57088 2-247, looked up)
Transmembrane protein 33: ADTTPNGPQGAGAVQFMMTNKLDTAMWLSRLFTVYCSALFVLPLLGLHEAASFYQRALLANALTSALRLHQRLPHFQLSRAFLAQALLEDSCHYLLYSLIFVNSYPVTMSIFPVLLFSLLHAATYTKKVLDARGSNSLPLLRSVLDKLSANQQNILKFIACNEIFLMPATVFMLFSGQGSLLQPFIYYRFLTLRYSSRRNPYCRTLFNELRIVVEHIIMKPACPLFVRRLCLQSIAFISRLAPTVP
- Difference (log2), untreated vs GFP (GFP-14-3-3β; log2 difference, pairwise comparison untreated vs GFP, label-free quantification, 3 replicates each): 0.3842

- Difference (log2), PP1 vs untreated [1, 3]: -0.8983 log2
B6: HNRNPA3 (protein, UniProt P51991 1-378, looked up)
Heterogeneous nuclear …: MEVKPPPGRPQPDSGRRRRRRGEEGHDPKEPEQLRKLFIGGLSFETTDDSLREHFEKWGTLTDCVVMRDPQTKRSRGFGFVTYSCVEEVDAAMCARPHKVDGRVVEPKRAVSREDSVKPGAHLTVKKIFVGGIKEDTEEYNLRDYFEKYGKIETIEVMEDRQSGKKRGFAFVTFDDHDTVDKIVVQKYHTINGHNCEVKKALSKQEMQSAGSQRGRGGGSGNFMGRGGNFGGGGGNFGRGGNFGGRGGYGGGGGGSRGSYGGGDGGYNGFGGDGGNYGGGPGYSSRGGYGGGGPGYGNQGGGYGGGGGYDGYNEGGNFGGGNYGGGGNYNDFGNYSGQQQSNYGPMKGGSFGGRSSGSPYGGGYGSGGGSGGYGSRRF
- Difference (log2), untreated vs GFP (GFP-14-3-3β; [2]): 1.1202 log2
